From US20120178694A1 (University of Pennsylvania, published 2012)
Values belong to the binder of their own block, whether it stands above or below them. Bridge positions count the residues as written; N and C are the ends. Square brackets hold non-standard residues; d marks the D form. Trp(1-Me) = Cn1cc(C[C@H](N)C(=O)O)c2ccccc21; NMeI = CC[C@H](C)[C@H](NC)C(=O)O; Nle = CCCC[C@H](N)C(=O)O; Sar = CNCC(=O)O

Experiments:
[1] = biological target: T1, C3 purified from fresh human plasma (human, UniProt P01024 23-1663); test: cell-based or functional assay
T1 sequence (P01024 23-1663): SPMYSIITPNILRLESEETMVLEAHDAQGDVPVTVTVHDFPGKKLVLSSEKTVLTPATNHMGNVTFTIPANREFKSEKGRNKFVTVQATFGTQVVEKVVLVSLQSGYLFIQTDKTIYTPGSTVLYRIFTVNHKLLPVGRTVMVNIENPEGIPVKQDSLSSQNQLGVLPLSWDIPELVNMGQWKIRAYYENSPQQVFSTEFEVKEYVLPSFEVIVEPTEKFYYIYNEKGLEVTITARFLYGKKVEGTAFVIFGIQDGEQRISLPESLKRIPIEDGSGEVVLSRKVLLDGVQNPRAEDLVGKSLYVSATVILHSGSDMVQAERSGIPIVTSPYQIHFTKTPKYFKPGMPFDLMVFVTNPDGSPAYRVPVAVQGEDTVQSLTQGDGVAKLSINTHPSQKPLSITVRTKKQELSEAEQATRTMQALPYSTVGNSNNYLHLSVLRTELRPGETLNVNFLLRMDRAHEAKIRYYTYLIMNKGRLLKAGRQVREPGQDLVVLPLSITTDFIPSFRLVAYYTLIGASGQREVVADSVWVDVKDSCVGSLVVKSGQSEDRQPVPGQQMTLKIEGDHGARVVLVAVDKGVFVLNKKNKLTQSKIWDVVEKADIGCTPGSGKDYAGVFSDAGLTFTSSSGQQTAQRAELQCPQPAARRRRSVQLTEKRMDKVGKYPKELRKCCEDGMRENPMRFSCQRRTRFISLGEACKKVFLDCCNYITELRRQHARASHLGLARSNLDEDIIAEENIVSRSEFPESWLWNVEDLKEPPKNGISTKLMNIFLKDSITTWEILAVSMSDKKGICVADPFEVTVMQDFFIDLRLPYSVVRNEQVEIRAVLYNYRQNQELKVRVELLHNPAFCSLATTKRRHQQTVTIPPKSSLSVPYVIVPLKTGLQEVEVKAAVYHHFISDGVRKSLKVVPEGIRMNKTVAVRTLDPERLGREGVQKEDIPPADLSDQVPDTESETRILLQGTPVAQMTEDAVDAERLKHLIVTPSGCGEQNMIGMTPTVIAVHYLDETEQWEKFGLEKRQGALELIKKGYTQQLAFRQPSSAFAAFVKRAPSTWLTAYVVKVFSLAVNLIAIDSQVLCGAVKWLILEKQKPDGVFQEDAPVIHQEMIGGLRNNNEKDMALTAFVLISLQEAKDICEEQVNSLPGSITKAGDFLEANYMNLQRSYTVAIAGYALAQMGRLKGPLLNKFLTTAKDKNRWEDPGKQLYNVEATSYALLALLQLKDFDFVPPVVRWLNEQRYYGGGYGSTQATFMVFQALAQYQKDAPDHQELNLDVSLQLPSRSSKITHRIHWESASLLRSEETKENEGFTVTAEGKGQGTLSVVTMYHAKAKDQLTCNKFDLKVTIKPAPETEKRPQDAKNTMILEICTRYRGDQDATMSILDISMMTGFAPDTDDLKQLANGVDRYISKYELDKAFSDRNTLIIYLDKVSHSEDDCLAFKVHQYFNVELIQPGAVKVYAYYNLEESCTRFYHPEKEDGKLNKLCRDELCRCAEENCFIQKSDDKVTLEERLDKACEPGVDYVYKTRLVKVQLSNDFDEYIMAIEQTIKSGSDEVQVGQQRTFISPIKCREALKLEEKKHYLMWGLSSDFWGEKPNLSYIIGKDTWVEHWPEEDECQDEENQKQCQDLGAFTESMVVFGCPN

biotinylated C3b [2] = biological target: biotinylated C3b (UniProt P01024); test: SPR on immobilised C3b; ratio relative to peptide 14
[3] = biological target: T1, C3 purified from fresh human plasma; test: cell-based or functional assay; remark: listed apart in the source
[4] = biological target: T1, C3 purified from fresh human plasma; test: cell-based or functional assay; remark: listed apart in the source
biotinylated C3b [5] = biological target: biotinylated C3b (UniProt P01024); test: SPR, Biacore 3000; biotinylated C3b on streptavidin chip, peptide injected; 1:1 fit
[6] = biological target: T1, C3 purified from fresh human plasma; test: ITC with C3; relative to peptide 14
Description: (§1) ITC analysis. All ITC experiments were performed with the Microcal VP-ITC calorimeter (Microcal Inc., Northampton, Mass.), using protein concentrations of 1.8-5 μM C3 in the cell and peptide concentrations of 40-100 μM of individual compstatin analogs in the syringe. All titrations were performed in PBS (10 mM phosphate buffer with 150 mM NaCl, pH 7.4) at 25° C. using multiple peptide injections of 2-7 μL each. The raw isotherms were corrected for the heats of dilution by subtracting the isotherms representing peptide injections into the buffer. The resulting isotherms were fitted to a single site of sites models using Origin 7.0 software, and the model that produced the lowest χ² value was deemed to be appropriate for the respective data set. The Gibbs free energy was calculated as ΔG=ΔH−TΔS. Each experiment was repeated at least twice.
(§2) Characterization of binding thermodynamics.

[7] = biological target: T1, C3 purified from fresh human plasma; test: ITC; peptide titrated into C3, PBS, 25 C
Description: as §1, §2

[8] = biological target: T1, C3 purified from fresh human plasma; test: cell-based or functional assay; remark: listed apart in the source

- rP, relative potency compared to peptide 14 [1]: 1.9 fold
- rKD SPR (biotinylated C3b [2]): 2.7 fold
- rka (biotinylated C3b [2]): 1.5 fold
- rkd (biotinylated C3b [2]): 1.7 fold
- IC50, inhibition of classical pathway complement activation, ELISA [3]: 109 nM
- Fold change in activity (IC50) relative to SEQ ID NO:4 [4]: 1.9 fold
- Kd (biotinylated C3b [5]): 4.4 nM
- koff (biotinylated C3b [5]): 0.0066 s⁻¹
- kon (biotinylated C3b [5]): 1.5e+06 M⁻¹ s⁻¹
B1: Ac-Ic[CV(1-MeW)QDW(N-MeG)AHRC](Nle)-NH2 (peptide)
peptide: Ac-ICV[Trp(1-Me)]QDW[Sar]AHRC[Nle]-NH2
modifications: disulfide 2-12
SMILES: CCCC[C@H](NC(=O)[C@@H]1CSSC[C@H](NC(=O)[C@@H](NC(C)=O)[C@@H](C)CC)C(=O)N[C@@H](C(C)C)C(=O)N[C@@H](Cc2cn(C)c3ccccc23)C(=O)N[C@@H](CCC(N)=O)C(=O)N[C@@H](CC(=O)O)C(=O)N[C@@H](Cc2c[nH]c3ccccc23)C(=O)N(C)CC(=O)N[C@@H](C)C(=O)N[C@@H](Cc2c[nH]cn2)C(=O)N[C@@H](CCCNC(=N)N)C(=O)N1)C(N)=O

- rP, relative potency compared to peptide 14 [1]: 1.9 fold
- rKD SPR (biotinylated C3b [2]): 2.6 fold
- rka (biotinylated C3b [2]): 1.3 fold
- rkd (biotinylated C3b [2]): 1.9 fold
- IC50, inhibition of classical pathway complement activation, ELISA [3]: 108 nM
- Fold change in activity (IC50) relative to SEQ ID NO:4 [4]: 1.91 fold
- Kd (biotinylated C3b [5]): 4.6 nM
- koff (biotinylated C3b [5]): 0.006 s⁻¹
- kon (biotinylated C3b [5]): 1.3e+06 M⁻¹ s⁻¹
B2: Ac-Ic[CV(1-MeW)QDW(N-MeG)AHRC]L-NH2 (peptide)
peptide: Ac-ICV[Trp(1-Me)]QDW[Sar]AHRCL-NH2
modifications: disulfide 2-12
SMILES: CC[C@H](C)[C@H](NC(C)=O)C(=O)N[C@H]1CSSC[C@@H](C(=O)N[C@@H](CC(C)C)C(N)=O)NC(=O)[C@H](CCCNC(=N)N)NC(=O)[C@H](Cc2c[nH]cn2)NC(=O)[C@H](C)NC(=O)CN(C)C(=O)[C@H](Cc2c[nH]c3ccccc23)NC(=O)[C@H](CC(=O)O)NC(=O)[C@H](CCC(N)=O)NC(=O)[C@H](Cc2cn(C)c3ccccc23)NC(=O)[C@H](C(C)C)NC1=O

- rP, relative potency compared to peptide 14 [1]: 3.3 fold
- rKD SPR (biotinylated C3b [2]): 5.2 fold
- rka (biotinylated C3b [2]): 1.5 fold
- rkd (biotinylated C3b [2]): 3.2 fold
- IC50, inhibition of classical pathway complement activation, ELISA [3]: 62 nM
- Fold change in activity (IC50) relative to SEQ ID NO:4 [4]: 3.32 fold
- -TΔΔS [6]: -1.3 kcal/mol
- rKD ITC [6]: 3.3 fold
- ΔΔG [6]: -0.7 kcal/mol
- ΔΔH [6]: 0.5 kcal/mol
- Kd (biotinylated C3b [5]): 2.3 nM
- koff (biotinylated C3b [5]): 0.0035 s⁻¹
- kon (biotinylated C3b [5]): 1.5e+06 M⁻¹ s⁻¹
- -TΔS [7]: 5.7 kcal/mol
- ΔG [7]: -11.4 kcal/mol
- ΔH [7]: -17.1 kcal/mol
B3: Ac-Ic[CV(1-MeW)QDW(N-MeG)AHRC](N-MeI)-NH2 (peptide)
peptide: Ac-ICV[Trp(1-Me)]QDW[Sar]AHRC[NMeI]-NH2
modifications: disulfide 2-12
SMILES: CC[C@H](C)[C@H](NC(C)=O)C(=O)N[C@H]1CSSC[C@@H](C(=O)N(C)[C@H](C(N)=O)[C@@H](C)CC)NC(=O)[C@H](CCCNC(=N)N)NC(=O)[C@H](Cc2c[nH]cn2)NC(=O)[C@H](C)NC(=O)CN(C)C(=O)[C@H](Cc2c[nH]c3ccccc23)NC(=O)[C@H](CC(=O)O)NC(=O)[C@H](CCC(N)=O)NC(=O)[C@H](Cc2cn(C)c3ccccc23)NC(=O)[C@H](C(C)C)NC1=O
notes: Sar^8, (NMe)Ile^13; also called peptide 21; analog 21

- rP, relative potency compared to peptide 14 [1]: 2.2 fold
- rKD SPR (biotinylated C3b [2]): 2.7 fold
- rka (biotinylated C3b [2]): 1.5 fold
- rkd (biotinylated C3b [2]): 1.7 fold
- IC50, inhibition of classical pathway complement activation, ELISA [3]: 92 nM
- Fold change in activity (IC50) relative to SEQ ID NO:4 [4]: 2.24 fold
- IC50 (nM, CP), inhibition of classical pathway complement activation, ELISA, human serum [8]: 92 nM
- IC50 fold change relative to peptide 17 [8]: 1 fold
- -TΔΔS [6]: -4.1 kcal/mol
- rKD ITC [6]: 2.4 fold
- ΔΔG [6]: -0.5 kcal/mol
- ΔΔH [6]: 3.5 kcal/mol
- Kd (biotinylated C3b [5]): 4.4 nM
- koff (biotinylated C3b [5]): 0.0066 s⁻¹
- kon (biotinylated C3b [5]): 1.5e+06 M⁻¹ s⁻¹
- -TΔS [7]: 2.9 kcal/mol
- ΔG [7]: -11.2 kcal/mol
- ΔH [7]: -14.1 kcal/mol
B4: Ac-Ile-c[Cys-Val-Trp(Me)-Gln-Asp-Trp-Sar-Ala-His-Arg-Cys]-Ile-NH2 (peptide)
peptide: Ac-ICV[Trp(1-Me)]QDW[Sar]AHRCI-NH2
modifications: disulfide 2-12
SMILES: CC[C@H](C)[C@H](NC(=O)[C@@H]1CSSC[C@H](NC(=O)[C@@H](NC(C)=O)[C@@H](C)CC)C(=O)N[C@@H](C(C)C)C(=O)N[C@@H](Cc2cn(C)c3ccccc23)C(=O)N[C@@H](CCC(N)=O)C(=O)N[C@@H](CC(=O)O)C(=O)N[C@@H](Cc2c[nH]c3ccccc23)C(=O)N(C)CC(=O)N[C@@H](C)C(=O)N[C@@H](Cc2c[nH]cn2)C(=O)N[C@@H](CCCNC(=N)N)C(=O)N1)C(N)=O
notes: Sar^8, Ile^13; also called peptide 17; Ac-Ic[CV(1-MeW)QDW(N-MeG)AHRC]I-NH2
